Source: patent WO2022196697A1 (dated 2022)

Columns and labels:
[1] = biological target: T1, HER2 immunoprecipitated from the membrane fraction of cardiomyocytes (human, UniProt P04626 23-1255); assay: lectin blot of immunoprecipitated HER2 after electrophoresis (legend of Fig. 3)
T1 construct: also called cardiomyocyte-derived HER2; myocardial cell-derived HER2

[2] = biological target: T2, HER2 immunoprecipitated from the membrane fraction of HER2-type breast cancer cells (HER2 solution) (human, UniProt P04626 23-1255, glycosylated; also tested after PNGase F treatment); assay: lectin array with immunoprecipitated HER2, with and without PNGase F; confirmed by Western and lectin blotting
T2 construct: Not fractionated by lectin; also called breast cancer cell-derived HER2; unfractionated HER2

Row | binding result [1] | binding result [2] | Binder
1 | binds | binds | AOL (Aspergillus oryzae lectin) (other, UniProt Q2UNX8 1-311, looked up, also called biotinylated AOL) MSTPGAQEVLFRTGIAAVNSTNHLRVYFQDSHGSIRESLYESGWANGTAKNVIAKAKLGTPLAATSKELKNIRVYSLTEDNVLQEAAYDSGSGWYNGALAGAKFTVAPYSRIGSVFLAGTNALQLRIYAQKTDNTIQEYMWNGDGWKEGTNLGVALPGTGIGVTCWRYTDYDGPSIRVWFQTDNLKLVQRAYDPHTGWYKELTTIFDKAPPRCAIAATNFNPGKSSIYMRIYFVNSDNTIWQVCWDHGQGYHDKRTITPVIQGSEIAIISWEGPELRLYFQNGTYVSAISEWTWGKAHGSQLGRRALPPAE
2 | binds | binds | AAL (Aleuria aurantia lectin) (other, UniProt P18891 2-313, looked up, also called AAL lectin) PTEFLYTSKIAAISWAATGGRQQRVYFQDLNGKIREAQRGGDNPWTGGSSQNVIGEAKLFSPLAAVTWKSAQGIQIRVYCVNKDNILSEFVYDGSKWITGQLGSVGVKVGSNSKLAALQWGGSESAPPNIRVYYQKSNGSGSSIHEYVWSGKWTAGASFGSTVPGTGIGATAIGPGRLRIYYQATDNKIREHCWDSNSWYVGGFSASASAGVSIAAISWGSTPNIRVYWQKGREELYEAAYGGSWNTPGQIKDASRPTPSLPDTFIAANSSGNIDISVFFQASGVSLQQWQWISGKGWSIGAVVPTGTPAGW
